Data on 3 molecules can be found in patent US20210253643A1, “HYDROPHOBIC BIOMOLECULE STABILIZING SCAFFOLD PEPTIDES AND METHODS OF MAKING AND USING SAME” (The University of British Columbia, priority 2018, published 2021).

No end group written: not given here.

The target in one experiment is membrane proteins. As to the kind of experiment: on-gel reconstitution, competitor equimolar NSPr-FAM; 0 no, 100 full competition.
In experiment [1] the target is MalFGK2, P02916. As to the kind of experiment: SDS-PAGE densitometry of purified peptidisc against an NSPr standard curve.
For experiment [2], the target named is photosynthetic bacterial reaction center (BRC) from Rhodobacter sphaeroides (Rhodobacter sphaeroides), P0C0Y9. Described as above.
Experiment [3] addresses MalFGK2, P02916. As to the kind of experiment: BN-PAGE of MalFGK2-NSPr, time 0 hr of incubation at 30 °C.
A further experiment addresses T1, SecYEG complex, P0AGA2.
T1 chain 1: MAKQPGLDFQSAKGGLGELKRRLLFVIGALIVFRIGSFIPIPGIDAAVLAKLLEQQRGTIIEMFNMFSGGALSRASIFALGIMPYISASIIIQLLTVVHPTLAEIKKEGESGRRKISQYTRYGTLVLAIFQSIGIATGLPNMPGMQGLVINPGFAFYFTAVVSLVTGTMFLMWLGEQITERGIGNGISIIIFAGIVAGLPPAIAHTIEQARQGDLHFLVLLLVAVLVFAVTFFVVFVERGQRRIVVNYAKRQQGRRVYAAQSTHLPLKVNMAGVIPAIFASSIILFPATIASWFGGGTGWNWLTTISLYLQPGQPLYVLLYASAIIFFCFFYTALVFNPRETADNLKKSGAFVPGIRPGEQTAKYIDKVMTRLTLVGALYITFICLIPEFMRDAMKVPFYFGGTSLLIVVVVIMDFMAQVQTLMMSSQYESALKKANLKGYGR
T1 chain 2: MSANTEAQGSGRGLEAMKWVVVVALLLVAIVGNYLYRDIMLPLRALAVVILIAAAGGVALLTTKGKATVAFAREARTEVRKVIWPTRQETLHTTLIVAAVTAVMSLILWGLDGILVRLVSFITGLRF
T1 chain 3: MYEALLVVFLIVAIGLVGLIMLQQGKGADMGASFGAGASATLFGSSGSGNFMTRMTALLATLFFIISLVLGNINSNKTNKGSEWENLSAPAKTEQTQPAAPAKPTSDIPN
As to the kind of experiment: in-gel reconstitution, CN-PAGE titration of NSPr, Boltzmann fit.

Experiment [4] deals with MalFGK2, P02916. Described as above.
For experiment [5], the target named is T2, trimeric OmpF porin (E. coli), P02931.
T2 chain: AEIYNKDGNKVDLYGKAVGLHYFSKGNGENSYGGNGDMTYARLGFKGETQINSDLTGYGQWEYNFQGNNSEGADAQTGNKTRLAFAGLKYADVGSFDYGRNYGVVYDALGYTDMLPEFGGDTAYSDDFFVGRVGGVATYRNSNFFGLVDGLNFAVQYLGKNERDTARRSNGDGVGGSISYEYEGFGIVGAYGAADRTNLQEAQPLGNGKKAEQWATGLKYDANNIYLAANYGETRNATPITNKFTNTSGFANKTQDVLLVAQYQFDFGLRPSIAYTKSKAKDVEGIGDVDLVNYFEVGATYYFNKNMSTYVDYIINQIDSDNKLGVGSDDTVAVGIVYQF
The description is as above.

In experiment [6] the target is T3, FhuA (E. coli), P06971.
T3 chain: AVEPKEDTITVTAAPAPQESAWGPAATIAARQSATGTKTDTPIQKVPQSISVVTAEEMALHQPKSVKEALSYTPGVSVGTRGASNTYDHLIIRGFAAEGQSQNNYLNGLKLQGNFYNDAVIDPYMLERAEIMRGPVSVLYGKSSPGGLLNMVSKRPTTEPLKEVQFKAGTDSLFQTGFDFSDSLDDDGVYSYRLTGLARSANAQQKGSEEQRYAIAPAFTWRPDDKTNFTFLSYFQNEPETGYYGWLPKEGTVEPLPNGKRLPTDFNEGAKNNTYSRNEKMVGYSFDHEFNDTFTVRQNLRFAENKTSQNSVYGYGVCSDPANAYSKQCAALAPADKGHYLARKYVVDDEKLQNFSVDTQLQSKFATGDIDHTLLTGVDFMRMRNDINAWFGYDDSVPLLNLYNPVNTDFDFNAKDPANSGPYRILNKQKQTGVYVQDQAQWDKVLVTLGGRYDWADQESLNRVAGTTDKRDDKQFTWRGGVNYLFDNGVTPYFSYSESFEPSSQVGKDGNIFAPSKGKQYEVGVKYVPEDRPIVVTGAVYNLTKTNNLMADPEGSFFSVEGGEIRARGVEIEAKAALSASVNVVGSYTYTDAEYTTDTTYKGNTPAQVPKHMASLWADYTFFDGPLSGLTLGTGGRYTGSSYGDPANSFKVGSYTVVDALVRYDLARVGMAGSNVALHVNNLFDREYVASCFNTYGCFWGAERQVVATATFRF
The experiment is described as above.

The target of experiment [7] is MalFGK2, P02916. As to the kind of experiment: BN-PAGE of MalFGK2-NSPr after 1 hr of incubation at 30 °C.
The target of experiment [8] is MalFGK2, P02916. As to the kind of experiment: BN-PAGE of MalFGK2-NSPr after 3 hr of incubation at 30 °C.
Experiment [9] has as its target T3, FhuA (E. coli), P06971. As to the kind of experiment: density of the FhuA band of FIG. 19B plotted against log(mol NSPr/mol FhuA); half-maximal reconstitution ratio RR50.
The target of experiment [10] is MalFGK2, P02916. As to the kind of experiment: BN-PAGE of MalFGK2-NSPr after 2 hr of incubation at 30 °C.
Experiment [11] deals with T3, FhuA (E. coli), P06971. As to the kind of experiment: western blot with streptavidin-Alexa 680 of peptidisc made with NSPrbio, against a standard curve.

Sequence of MalFGK2, P02916 (P02916 whole entry, chain 1 of 3): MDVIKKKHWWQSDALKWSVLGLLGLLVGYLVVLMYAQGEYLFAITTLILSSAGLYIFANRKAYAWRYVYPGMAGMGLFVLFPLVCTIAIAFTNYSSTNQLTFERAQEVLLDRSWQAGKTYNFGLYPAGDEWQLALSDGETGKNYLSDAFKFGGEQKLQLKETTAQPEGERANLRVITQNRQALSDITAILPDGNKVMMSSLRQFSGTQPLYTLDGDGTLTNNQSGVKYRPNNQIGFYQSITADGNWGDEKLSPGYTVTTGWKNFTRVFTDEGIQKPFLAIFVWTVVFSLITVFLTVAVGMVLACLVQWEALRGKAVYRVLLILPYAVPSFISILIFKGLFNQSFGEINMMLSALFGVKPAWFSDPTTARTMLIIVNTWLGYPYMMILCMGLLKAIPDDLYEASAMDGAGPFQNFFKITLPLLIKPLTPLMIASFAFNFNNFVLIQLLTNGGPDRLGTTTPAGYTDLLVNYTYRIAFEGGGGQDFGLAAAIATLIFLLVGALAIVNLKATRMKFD
Sequence of MalFGK2, P02916 (P68183 whole entry, chain 2 of 3, further chain): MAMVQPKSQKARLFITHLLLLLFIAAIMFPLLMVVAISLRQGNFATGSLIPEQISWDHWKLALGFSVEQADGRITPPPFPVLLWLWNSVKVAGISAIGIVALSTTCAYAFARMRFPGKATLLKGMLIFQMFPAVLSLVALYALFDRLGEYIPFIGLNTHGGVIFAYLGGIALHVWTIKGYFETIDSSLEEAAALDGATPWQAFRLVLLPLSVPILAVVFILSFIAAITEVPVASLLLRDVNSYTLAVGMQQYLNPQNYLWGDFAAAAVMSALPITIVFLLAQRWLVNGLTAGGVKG
Sequence of MalFGK2, P02916 (P68187 whole entry, chain 3 of 3, further chain): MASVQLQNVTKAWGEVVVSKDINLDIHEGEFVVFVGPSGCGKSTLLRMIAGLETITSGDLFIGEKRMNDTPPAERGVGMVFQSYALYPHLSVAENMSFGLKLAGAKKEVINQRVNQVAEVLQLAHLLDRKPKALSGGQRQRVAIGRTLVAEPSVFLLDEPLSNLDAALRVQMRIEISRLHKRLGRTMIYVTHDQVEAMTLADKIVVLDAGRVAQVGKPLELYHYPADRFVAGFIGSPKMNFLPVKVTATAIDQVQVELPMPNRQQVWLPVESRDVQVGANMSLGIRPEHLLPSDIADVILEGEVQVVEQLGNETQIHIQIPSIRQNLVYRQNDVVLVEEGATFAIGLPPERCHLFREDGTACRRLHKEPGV

DWLKAFYDKVAEKLKEAAPDWFKAFYDKVAEKFKEAF (not fully specified (N-terminus, C-terminus)) [Ac-NSP-NH2]: the Competition peptide (% NSPr-FAM) in the experiment with membrane proteins amounted to 10%.

For FAEKFKEAVKDYFAKFWDPAAEKLKEAVKDYFAKLWD (modifications not checked) [NSPr], the Measured NSPr stoichiometry (NSPr/disc) with MalFGK2, P02916 [1] is 10 NSPr/disc; in [2], 9 NSPr/disc. The (%) of the MalFGK2 Peptidisc band with MalFGK2, P02916 [3] was found to be 100%; with MalFGK2, P02916 [7], 89%; with MalFGK2, P02916 [8], 84%; in the experiment with MalFGK2, P02916 [10], 86%. The RR50 (half-maximal reconstitution molar ratio) (mol NSPr/mol protein) with SecYEG complex, P0AGA2 was 20; with MalFGK2, P02916 [4], 20; in experiment [5] it was 20; with FhuA (E. coli), P06971 [6] it was 20. Further, in the experiment with FhuA (E. coli), P06971 [9], the EC50 (read off the curve) (mol NSPr/mol FhuA) worked out at 20.

Molecule FAEKFKEAVKDYFAKFWDPAAEKLKEAVKDYFAKLWD (not fully specified (N-terminus)) [NSPr-biotin] showed a Measured NSPr stoichiometry (NSPr/disc) in the experiment with FhuA (E. coli), P06971 [11] of 10 NSPr/disc.
